Substitutions are numbered along the chain they refer to. Values joined by “and” are separate entries in the source; they are usually repeats but may differ in a detail not shown here. Equal values may be shown once.
B1: P11d4 Fab (Fab, V domains shown)
VH: QVTLRESGPALVKPTQTLTLTCTFSGFSLSTPGMSVGWIRQPPGKALEWLADIWWDGKKHYNPSLKDRLTISKDTSKNQVVLKVTNMDPADTATYYCARDMIFNWYFDVWGQGTTVTVSS
VL: DIQMTQSPSTLSASVGDRVTITCSPSSRVGYMHWYQQKPGKAPKLLIYDTMRLASGVPSRFSGSGSGTEFTLTISSLQPDDFATYYCFQGSGYPFTFGGGTKVEIK
notes: Fab
B2: A4B4 IgG (antibody, V domains shown)
VH: B1 VH with P32A, G57D, W105F
VL: DIQMTQSPSTLSASVGDRVTITCSASSRVGYMHWYQQKPGKAPKLLIYDTFFLDSGVPSRFSGSGSGTEFTLTISSLQPDDFATYYCFQGSGYPFTFGGGTKVEIKR
notes: IgG1/kappa
B3: A1e9 Fab (Fab, V domains shown)
VH: B1 VH with P32A
VL: B1 VL with P25L, M51F, R52K, A54S
notes: Fab; also called Ale9
B4: A12a6 Fab (Fab, V domains shown)
VH: B1 VH with P32A, H60D, W105F
VL: B1 VL with P25A, M51F, R52K, A54S
notes: Fab
B5: P12f2 Fab (Fab, V domains shown)
VH: B1 VH with G57D, W105F
VL: B1 VL with P25L, M51F, R52Y, A54S
notes: Fab
B6: A13c4 Fab (Fab, V domains shown)
VH: B1 VH with P32A, H60S, W105F
VL: B1 VL with P25L, R52Y, L53Q, A54S
notes: Fab
B7: A13a11 Fab (Fab, V domains shown)
VH: B1 VH with P32A, G57D
VL: B1 VL with M51Y, L53H, A54S
notes: Fab
B8: 1X-493L1FR Fab (Fab, V domains shown)
VH: B1 VH with P32S, G57D, H60D, D67S, D100S, F103T
VL: B1 VL with P25A, R28S, M51S, R52K
notes: also called IX-493L1FR
B9: AFFF(1) Fab (Fab, V domains shown)
VH: B1 VH with P32A, G57D, H60D, D67S, D100S, F103T, W105F
VL: B1 VL with P25A, R28S, M51F, R52K, G92F
notes: Fab; also called AHH(1)
B10: AFFF(1) IgG (antibody, V domains shown)
VH: B1 VH with P32A, G57D, H60D, D67S, D100S, F103T, W105F
VL: B2 VL with R28S, F52K, D54A, G92F
notes: IgG1/kappa

biological target: F protein of RSV Long strain on infected HEp-2 cells (respiratory syncytial virus Long strain, UniProt P12568 26-574); assay: cell-based or functional assay
Sequence (P12568 26-574): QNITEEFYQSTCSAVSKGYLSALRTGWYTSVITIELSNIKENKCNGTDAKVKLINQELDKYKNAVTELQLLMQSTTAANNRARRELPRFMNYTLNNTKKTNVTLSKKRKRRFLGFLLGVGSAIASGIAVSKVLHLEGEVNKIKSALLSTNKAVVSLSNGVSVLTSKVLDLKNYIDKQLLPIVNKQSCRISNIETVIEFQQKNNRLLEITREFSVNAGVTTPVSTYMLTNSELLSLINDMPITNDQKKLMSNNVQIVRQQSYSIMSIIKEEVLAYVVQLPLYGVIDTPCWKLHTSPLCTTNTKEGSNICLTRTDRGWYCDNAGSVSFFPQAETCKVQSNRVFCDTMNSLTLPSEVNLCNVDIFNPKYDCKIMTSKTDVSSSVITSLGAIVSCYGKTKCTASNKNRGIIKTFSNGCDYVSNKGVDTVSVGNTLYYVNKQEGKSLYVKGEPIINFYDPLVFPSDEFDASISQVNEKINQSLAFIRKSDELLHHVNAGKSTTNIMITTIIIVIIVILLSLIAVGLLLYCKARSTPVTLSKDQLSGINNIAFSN

Row | Binder | RSV microneutralization IC50
1 | B1 | 0.292 µg/ml and 5.84 nM

biological target: Bac-F (respiratory syncytial virus); assay: BIAcore, (1:1)
Sequence (P03420 26-524): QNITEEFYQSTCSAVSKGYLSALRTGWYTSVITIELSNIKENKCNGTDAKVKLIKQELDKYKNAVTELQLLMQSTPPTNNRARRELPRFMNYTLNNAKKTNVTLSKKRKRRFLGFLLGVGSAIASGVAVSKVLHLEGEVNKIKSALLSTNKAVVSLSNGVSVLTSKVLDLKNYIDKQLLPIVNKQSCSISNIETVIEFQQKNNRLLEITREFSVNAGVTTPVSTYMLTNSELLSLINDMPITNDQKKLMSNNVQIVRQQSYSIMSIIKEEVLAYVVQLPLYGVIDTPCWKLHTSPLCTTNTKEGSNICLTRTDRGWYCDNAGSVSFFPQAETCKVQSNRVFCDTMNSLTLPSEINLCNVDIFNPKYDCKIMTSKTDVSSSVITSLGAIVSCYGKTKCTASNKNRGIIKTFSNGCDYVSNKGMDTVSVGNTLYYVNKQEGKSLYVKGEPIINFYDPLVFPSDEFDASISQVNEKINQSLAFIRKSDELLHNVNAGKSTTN

Row | Binder | Kd | koff | kon | number in parentheses after KD (ratio to palivizumab = 1)
2 | B2 | 0.02 nM | 1.06e-05 s⁻¹ | 434000 M⁻¹ s⁻¹ | 195 fold

biological target: RSV F protein (immobilised antigen of Example 6.1) (respiratory syncytial virus); assay: BIAcore
Sequence (P03420 26-524): as above

Row | Binder | koff | kon
3 | B1 | 0.000717 s⁻¹ | 570000 M⁻¹ s⁻¹ and 572000 M⁻¹ s⁻¹
4 | B3 | 0.000453 s⁻¹ | 790000 M⁻¹ s⁻¹
5 | B4 | 0.00023 s⁻¹ | 743000 M⁻¹ s⁻¹
6 | B5 | 0.000282 s⁻¹ | 663000 M⁻¹ s⁻¹
7 | B6 | 0.00028 s⁻¹ | 781000 M⁻¹ s⁻¹ and 735000 M⁻¹ s⁻¹
8 | B7 | 0.00025 s⁻¹ | 735000 M⁻¹ s⁻¹
9 | B8 | 0.00065 s⁻¹ | 185000 M⁻¹ s⁻¹
10 | B9 | 0.000245 s⁻¹ and 0.000446 s⁻¹ and 0.000268 s⁻¹ | 212000 M⁻¹ s⁻¹ and 156000 M⁻¹ s⁻¹ and 186000 M⁻¹ s⁻¹
11 | B10 | 0.000274 s⁻¹ and 0.000266 s⁻¹ and 0.000206 s⁻¹ | 108000 M⁻¹ s⁻¹ and 96000 M⁻¹ s⁻¹ and 124000 M⁻¹ s⁻¹

— patent US20100098708A1 (AstraZeneca / MedImmune, published 2010)
